Assay results: paper PMC7689938, “Abscisic acid promotes jasmonic acid biosynthesis via a ‘SAPK10‐bZIP72‐AOC’ pathway to synergistically inhibit seed germination in rice (Oryza sativa)” (The New Phytologist, 2020)
Changes are numbered by the printed parent chain.

Molecular target: T1, GST-SAPK10 (rice (Oryza sativa L. ssp. japonica cv …, UniProt Q75H77 1-362))
T1 construct: SAPK10 (SnRK2 type kinase), rice; full-length CDS in pGEX-4T-1; Purified GST-SAPK10 gave a phosphorylation band with Phos-tag (autophosphorylation, not detected in S177A); source: Transetta (DE3) cells, purified (GST-Sefinose Kit)
T1 sequence (looked up): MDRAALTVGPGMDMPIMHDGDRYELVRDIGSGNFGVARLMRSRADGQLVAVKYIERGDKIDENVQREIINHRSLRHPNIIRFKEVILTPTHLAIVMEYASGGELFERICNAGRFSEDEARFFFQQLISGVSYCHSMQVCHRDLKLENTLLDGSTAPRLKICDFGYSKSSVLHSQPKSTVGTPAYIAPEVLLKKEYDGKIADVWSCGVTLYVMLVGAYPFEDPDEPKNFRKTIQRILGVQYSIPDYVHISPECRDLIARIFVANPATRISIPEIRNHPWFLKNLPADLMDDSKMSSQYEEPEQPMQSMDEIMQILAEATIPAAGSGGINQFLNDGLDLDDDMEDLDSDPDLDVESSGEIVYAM
Assay: pull-down; GST fusion on glutathione high-capacity magnetic agarose beads; 50 mM Tris-HCl pH 7.5, 5% glycerol, 1 mM EDTA, 1 mM DTT, 1 mM PMSF, 0.01% Nonidet P-40, 150 mM KCl; 4°C, 2 h; blots with anti-His and anti-GST
Conditions: both partners purified

B1: His-SAPK10 (enzyme, UniProt Q75H77 1-362, looked up)
chain: T1 sequence (looked up)
notes: SAPK10 (SnRK2 type kinase), rice; full-length CDS in pET28a; source: Transetta (DE3) cells, purified (6 x His-Tagged Protein Purification Kit)
Q: Does B1 bind?
A: binds

B2: His-SAPK10^S177A (enzyme, UniProt Q75H77 1-362, looked up)
chain: T1 sequence (looked up) with S177A
notes: SAPK10, rice, Ser177 replaced by alanine; full-length CDS in pET28a; source: Transetta (DE3) cells, purified (6 x His-Tagged Protein Purification Kit)
Q: Does B2 bind?
A: binds
